Source: patent US20100330095A1 (U3 PHARMA, published 2010)

T1: mouse AXL (mouse, UniProt Q00993 19-888)
T1 construct: whole, on cells; Transiently expressed on HEK293T cells (pcDNA3-mAXL); also called mAXL
T1 sequence (looked up): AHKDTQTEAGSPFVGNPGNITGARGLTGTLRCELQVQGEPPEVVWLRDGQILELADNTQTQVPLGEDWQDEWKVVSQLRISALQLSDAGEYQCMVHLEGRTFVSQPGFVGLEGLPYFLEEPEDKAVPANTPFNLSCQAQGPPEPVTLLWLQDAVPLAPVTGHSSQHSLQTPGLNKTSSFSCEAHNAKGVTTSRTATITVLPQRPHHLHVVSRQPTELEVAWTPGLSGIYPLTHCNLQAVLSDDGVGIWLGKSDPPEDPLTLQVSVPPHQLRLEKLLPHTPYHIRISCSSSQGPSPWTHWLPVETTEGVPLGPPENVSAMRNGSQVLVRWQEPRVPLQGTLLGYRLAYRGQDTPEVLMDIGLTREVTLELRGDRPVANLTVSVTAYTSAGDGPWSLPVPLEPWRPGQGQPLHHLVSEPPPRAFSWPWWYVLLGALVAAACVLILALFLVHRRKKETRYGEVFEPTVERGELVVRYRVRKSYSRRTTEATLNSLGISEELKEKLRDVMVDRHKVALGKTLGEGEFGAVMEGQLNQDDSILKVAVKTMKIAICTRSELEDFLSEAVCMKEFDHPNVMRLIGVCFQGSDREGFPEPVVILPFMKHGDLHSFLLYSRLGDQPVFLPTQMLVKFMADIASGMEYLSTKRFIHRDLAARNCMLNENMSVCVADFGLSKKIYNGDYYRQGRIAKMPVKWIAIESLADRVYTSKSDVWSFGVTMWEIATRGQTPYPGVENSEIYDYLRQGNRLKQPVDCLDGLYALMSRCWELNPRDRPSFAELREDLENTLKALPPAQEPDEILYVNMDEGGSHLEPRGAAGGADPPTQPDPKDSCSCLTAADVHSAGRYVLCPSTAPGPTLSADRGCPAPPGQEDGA

T2: human Sky (human, UniProt Q06418 41-890)
T2 construct: whole, on cells; Transiently expressed on HEK293T cells (pcDNA3-hSky); also called hSky
T2 sequence (looked up): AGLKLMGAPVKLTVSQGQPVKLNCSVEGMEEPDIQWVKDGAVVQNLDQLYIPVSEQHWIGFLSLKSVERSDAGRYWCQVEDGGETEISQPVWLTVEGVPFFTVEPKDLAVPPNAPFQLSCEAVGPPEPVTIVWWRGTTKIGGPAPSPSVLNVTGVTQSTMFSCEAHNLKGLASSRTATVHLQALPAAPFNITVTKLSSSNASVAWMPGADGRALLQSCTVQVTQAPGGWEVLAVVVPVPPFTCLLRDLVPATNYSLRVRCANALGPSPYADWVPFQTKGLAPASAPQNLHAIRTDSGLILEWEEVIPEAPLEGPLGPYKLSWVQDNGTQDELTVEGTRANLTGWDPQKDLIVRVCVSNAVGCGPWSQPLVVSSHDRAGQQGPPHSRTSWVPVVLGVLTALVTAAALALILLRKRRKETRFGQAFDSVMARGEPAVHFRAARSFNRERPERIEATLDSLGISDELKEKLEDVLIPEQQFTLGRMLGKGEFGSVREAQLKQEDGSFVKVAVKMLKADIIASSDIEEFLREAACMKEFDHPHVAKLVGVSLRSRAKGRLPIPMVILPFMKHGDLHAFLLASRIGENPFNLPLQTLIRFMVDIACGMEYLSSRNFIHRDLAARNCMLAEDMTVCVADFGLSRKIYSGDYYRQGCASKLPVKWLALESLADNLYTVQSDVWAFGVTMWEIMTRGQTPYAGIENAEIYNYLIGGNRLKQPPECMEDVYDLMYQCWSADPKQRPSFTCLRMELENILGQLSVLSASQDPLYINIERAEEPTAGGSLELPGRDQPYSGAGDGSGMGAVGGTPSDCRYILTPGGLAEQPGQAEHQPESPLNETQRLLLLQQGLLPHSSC


How the values were obtained:
mouse AXL = target: T1, mouse AXL; test: flow cytometry, transiently transfected HEK293T cells
Procedure: (§1) FIG. 3. Flow cytometry analysis of cross-reactivity of rat-anti AXL antibodies with mouse and cynomolgus monkey AXL as well as human Mer and Sky. HEK293T fibroblasts were transiently transfected with pcDNA3, pcDNA3-hAXL, pcDNA3 mAXL, pcDNA3-cyAXL, pcDNA3-hMer, or pcDNA3-hSky. […] See text for details.
(§2) For FACS analysis, 2×10⁵ cells were harvested with 10 mM EDTA in PBS, washed once with FACS buffer (PBS, 3% FCS, 0.4% azide) and seeded on a 96 well round bottom plate. […] After incubation on ice for 1 h, cells were washed twice with chilled FACS buffer and resuspended with PE-conjugated donkey anti-rat (Jackson) secondary antibody diluted 1:50 in FACS buffer (100 μl/well) or PE-conjugated donkey anti-mouse secondary antibody for control. Protected from light, cells were incubated on ice for 30 min, washed twice with FACS buffer and analyzed using an Epics XL-MCL flow cytometer (Beckman Coulter).

human Sky = target: T2, human Sky; test: as above
Procedure: as §1, §2

Binder	binding result (mouse AXL)	binding result (human Sky)
I 11B7 (antibody, V domains shown, rat hybridoma antibody, antagonistic) VH: EVQLQESGPGLVKPSQSLSLTCSVTGYSITSNYWGWIRKFPGDKMEWMGYITYSGSTSYNPSLKSRISITRDTSKNQFFLQLNSVTSEDTATYYCAITTFYYWGQGVMVTVSS VL: DIQMTQAPSSLPASLGDRVTITCRASQDIGNYLRWFQQKPGKSPRLMISGATNLAAGVPSRFSGSRSGSDYSLTISSLESEDMADYYCLQSKESPWTFGGGTKLELK	no binding (tested: 10 µg/ml)	no binding (tested: 10 µg/ml)
III 11D5 (antibody, rat IgG2a, V domains shown, rat hybridoma antibody, antagonistic) VH: EVQLQESGPGLVKPSQSLSLTCSVTGYSITSNYWGWIRKFPGNKMEWIGHITNSGNTTYNPSLKSRISISRDTSRNQFFLQLNSVTTEDTATYYCAKGAFDYWGQGVMVTVSS VL: DIQMTQSPSSMSTSLGDRVTITCRASQDIGNYLSWFQQKVGKSPRRMIYGAIKLAVGVPSRFSGSRSGSDYSLTISSLESEDMAIYYCLQYIQFPLTFGSGTKLELK	no binding (tested: 10 µg/ml)	no binding (tested: 10 µg/ml)
I 10D12 (antibody, V domains shown, rat hybridoma antibody, antagonistic; subclass G1) VH: EVQLQESGPGLVKPSQSLSLTCSVTGYSITSNYWGWIRKFPGNKMEWMGYITNSGGTAYNPSLKSRISITRDTSKNQFFLQLNSVIPEDSATYFCSRTPWDWGQGVMVTVSS VL: DIQMTQAPSSLPASLGDRVTIACRASQDIGNYLRWFQQKPGKSPRLMISGATNLAAGVPSRFSGSRSGSDYSRTISSLESEDMADYYCLQSKESPWTFGGGTKLELK	no binding (tested: 10 µg/ml)	no binding (tested: 10 µg/ml)
